What was measured:
[1] = biological target: recombinant human glutaminyl cyclase (QC, EC 2.3.2.5) (human) (UniProt Q16769); test: competitive inhibition of the human QC catalyzed reaction, 30° C, 0.05 M Tris-HCl pH 8.0, 5 mM EDTA
[2] = system: T1, H-Gln-Glu-Ala-Ala-NH2
T1 sequence: QEAA

[3] = system: T2, H-Gln-Glu-Tyr-Ala-NH2
T2 sequence: QEYA

[4] = system: [Gln^1]-Neurotensin
[5] = system: T3, H-βhomoGln-Phe-Lys-Arg-Leu-Ala-NH2
T3 sequence: QFKRLA

[6] = system: T4, [Gln^1]-GnRH
T4 sequence: QHWSYGLRPG

[7] = system: T5, H-Gln-Glu-Asp-Leu-NH2
T5 sequence: QEDL

[8] = system: T6, H-Gln-Tyr-Ala-OH
T6 sequence: QYA

[9] = system: T7, H-Gln-Glu-Tyr-Phe-NH2
T7 sequence: QEYF

[10] = system: T8, H-Gln-Trp-Ala-NH2
T8 sequence: QWA

[11] = system: T9, H-Gln-Glu-OH
T9 sequence: QE

[12] = system: T10, H-Gln-Arg-Tyr-Phe-NH2
T10 sequence: QRYF

[13] = system: T11, H-Gln-Glu-Tyr-NH2
T11 sequence: QEY

[14] = system: T12, [Gln^1]-FPP
T12 sequence: QEP

[15] = system: T13, H-Gln-Gln-OH
T13 sequence: QQ

[16] = system: T14, H-Gln-Ala-OH
T14 sequence: QA

[17] = system: T15, H-Gln-Ala-Ala-Ser-Ala-Ala-NH2
T15 sequence: QAASAA

[18] = system: T16, H-Gln-His-Tyr-Phe-NH2
T16 sequence: QHYF

[19] = system: T17, H-Gln-Ala-Ala-Ala-Ala-NH2
T17 sequence: QAAAA

[20] = system: T18, [Gln^1]-Gastrin
T18 sequence: QGPWLEEEEEAYGWMDF

[21] = system: T19, H-Gln-Phe-Ala-NH2
T19 sequence: QFA

[22] = system: T20, H-Gln-Gly-Pro-OH
T20 sequence: QGP

[23] = system: T21, H-Gln-Gly-OH
T21 sequence: QG

[24] = system: T22, H-Gln-cyclo(Nε-Lys-Arg-Pro-Ala-Gly-Phe)
T22 sequence: QKRPAGF

[25] = system: T23, H-Gln(NMe)-Phe-Lys-Ala-Glu-NH2
T23 sequence: QFKAE

[26] = system: T24, H-Gln-Lys-Arg-Leu-NH2
T24 sequence: QKRL

[27] = biological target: [Gln^3]-glucagon(3-29) (UniProt P01275)
[28] = system: T25, [Gln^5]-substance P(5-11)
T25 sequence: QQFFGLM

[29] = system: T26, H-Gln-Arg-Gly-Ile-NH2
T26 sequence: QRGI

[30] = system: T27, H-Gln-Gln-Tyr-Phe-NH2
T27 sequence: QQYF

[31] = system: T28, H-Gln-Pro-Tyr-Phe-NH2
T28 sequence: QPYF

[32] = system: T29, H-Gln-Ser-Tyr-Phe-NH2
T29 sequence: QSYF

[33] = system: T30, H-Gln-Asn-Gly-Ile-NH2
T30 sequence: QNGI

[34] = system: T31, H-Gln-Ala-Ala-NH2
T31 sequence: QAA

[35] = system: T32, H-Gln-Ala-NH2
T32 sequence: QA

[36] = system: T33, H-Gln-Glu-Ala-Phe-NH2
T33 sequence: QEAF

[Gln^3]-glucagon(3-29), sequence (P01275 23-49): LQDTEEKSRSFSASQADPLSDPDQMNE
recombinant human glutaminyl cyclase (QC, EC 2.3.2.5) (human), sequence (Q16769 29-361 limits assumed): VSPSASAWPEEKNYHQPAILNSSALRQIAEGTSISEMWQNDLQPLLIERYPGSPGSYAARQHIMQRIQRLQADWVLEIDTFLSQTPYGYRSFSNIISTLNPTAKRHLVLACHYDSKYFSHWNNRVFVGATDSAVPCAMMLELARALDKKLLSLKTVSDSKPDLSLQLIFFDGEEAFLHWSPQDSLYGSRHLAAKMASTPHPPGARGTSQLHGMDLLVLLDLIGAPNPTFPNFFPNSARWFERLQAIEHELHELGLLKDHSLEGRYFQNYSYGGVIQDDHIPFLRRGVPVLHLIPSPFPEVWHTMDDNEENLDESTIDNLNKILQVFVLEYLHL

H-His-Trp-OH (peptide)
Ki [1]: 600 µM

glutaminyl cyclase from Carica papaya latex
KM (substrate conversion by QC) [2]: 102 µM | KM (substrate conversion by QC) [3]: 113 µM | KM (substrate conversion by QC) [4]: 40 µM | KM (substrate conversion by QC) [5]: KM=3.1±0.3 mM | KM (substrate conversion by QC) [6]: 169 µM | KM (0.05 M Tricine-NaOH, pH 8.0) [7]: 0.109 mM | KM (0.05 M Tricine-NaOH, pH 8.0, 0.5 M KCl) [7]: 0.094 mM | KM (substrate conversion by QC) [7]: 107 µM | KM (substrate conversion by QC) [8]: 63 µM | KM (substrate conversion by QC) [9]: 100 µM | KM (0.05 M Tricine-NaOH, pH 8.0) [10]: 0.079 mM | KM (0.05 M Tricine-NaOH, pH 8.0, 0.5 M KCl) [10]: 0.072 mM | KM (substrate conversion by QC) [10]: 78 µM | KM (0.05 M Tricine-NaOH, pH 8.0) [11]: 0.098 mM | KM (0.05 M Tricine-NaOH, pH 8.0, 0.5 M KCl) [11]: 0.094 mM | KM (substrate conversion by QC) [11]: 106 µM | KM (substrate conversion by QC) [12]: 124 µM | KM (substrate conversion by QC) [13]: 103 µM | KM (substrate conversion by QC) [14]: 232 µM | KM (substrate conversion by QC) [15]: 44 µM | KM (0.05 M Tricine-NaOH, pH 8.0) [16]: 0.137 mM | KM (0.05 M Tricine-NaOH, pH 8.0, 0.5 M KCl) [16]: 0.143 mM | KM (substrate conversion by QC) [16]: 158 µM | KM (substrate conversion by QC) [17]: 216 µM | KM (substrate conversion by QC) [18]: 92 µM | KM (substrate conversion by QC) [19]: 197 µM | KM (substrate conversion by QC) [20]: 34 µM | KM (substrate conversion by QC) [21]: 111 µM | KM (substrate conversion by QC) [22]: 333 µM | KM (substrate conversion by QC) [23]: 641 µM | KM (substrate conversion by QC) [24]: KM-values of 240±14 µM and 133±5 µM for human and papaya QC, respectively | conversion to the pyroglutamyl peptide (MALDI-TOF) [25]: The methylated glutaminyl residue was only converted into a pyroglutamyl residue by papaya QC | KM (0.05 M Tricine-NaOH, pH 8.0) [26]: 0.102 mM | KM (0.05 M Tricine-NaOH, pH 8.0, 0.5 M KCl) [26]: 0.053 mM | KM (substrate conversion by QC) [26]: 118 µM | substrate conversion, determined qualitatively by MALDI-TOF [27]: * | substrate conversion, determined qualitatively by MALDI-TOF [28]: * | KM (0.05 M Tricine-NaOH, pH 8.0) [29]: 0.106 mM | KM (0.05 M Tricine-NaOH, pH 8.0, 0.5 M KCl) [29]: 0.065 mM | KM (substrate conversion by QC) [29]: 123 µM | KM (substrate conversion by QC) [30]: 45 µM | KM (substrate conversion by QC) [31]: 149 µM | KM (substrate conversion by QC) [32]: 135 µM | KM (substrate conversion by QC) [33]: 153 µM | KM (substrate conversion by QC) [34]: 164 µM | KM (substrate conversion by QC) [35]: 212 µM | KM (substrate conversion by QC) [36]: 81 µM

Reference: patent US7462599
